To fix the notation:
T1: cynomolgus IL-31-His (cynomolgus monkey (Macaca fascicularis), UniProt G7PJ78 24-163)
T1 construct: extracellular domain; also called cynomolgus monkey IL-31; cyno IL-31; not shown: His tag
T1 sequence: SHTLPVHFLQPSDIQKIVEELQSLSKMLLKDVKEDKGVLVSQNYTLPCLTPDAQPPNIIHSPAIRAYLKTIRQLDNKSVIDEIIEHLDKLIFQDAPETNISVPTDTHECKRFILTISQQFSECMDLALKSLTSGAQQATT

T2: human IL-31 (human, UniProt Q6EBC2 24-164)
T2 sequence (looked up): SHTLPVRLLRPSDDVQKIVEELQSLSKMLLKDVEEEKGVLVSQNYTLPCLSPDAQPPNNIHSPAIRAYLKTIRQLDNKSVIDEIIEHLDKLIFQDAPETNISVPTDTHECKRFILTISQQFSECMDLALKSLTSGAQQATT

B1: PRO1903 (scFv)
chain: AFQLTQSPSSLSASVGDRVTITCQASQSIESWLAWYQQKPGKPPKLLIYQASKLASGVPSRFSGSGSGTDYTLTISSLQPEDFATYYCQTYYGGGHIGWGFGTGTKVTVLGGGGGSGGGGSGGGGSGGGGSQSQLVESGGGLVQPGGSLRLSCAASGFSFSANYWICWVRQAPGKGLEWIVCIYIGSRADTYYAPWAKGRFTISKDNSKNTVYLQMNSLRAEDTAVYFCARFSSGIYDLDRFFLWGQGTLVTVSS
B2: PRO1901 (scFv)
chain: B1 chain with E30D, L142S, V226T, L250Q
B3: PRO1902 (scFv)
chain: B1 chain with E30D, Y184S
B4: PRO1900 (scFv)
chain: B1 chain with E30D, L142R, V226T, L250Q
B5: PRO2198 (bispecific antibody)
chain 1: DIQMTQSPSSLSARVGDRVTITCQASEDIESYLAWYQQKPGKAPKLLIYRASTLAYGVPSRFSGSGSGRDFTLTISSLQPEDFATYYCLGSSYSTGSNIFGQGTKVEIKRTVAAPSVFIFPPSDEQLKSGTASVVCLLNNFYPREAKVQWKVDNALQSGNSQESVTEQDSKDSTYSLSSTLTLSKADYEKHKVYACEVTHQGLSSPVTKSFNRGEC
chain 2: not shown
B6: PRO2199 (bispecific antibody)
chain 1: not shown
chain 2: B5 chain 1 with R14S, R69T

Residue numbers refer to the chain shown, from its start.

The target in one test is T1, cynomolgus IL-31-His. Nature of the test: SPR (Biacore T200), IL-31-His captured via anti-His antibody, scFv as analyte, 1:1 model.
As to B1, the Kd came to 1.39 nM, the koff was 0.000605 s⁻¹ and the kon is 434000 M⁻¹ s⁻¹.
In turn, B2 gave a Kd of 1.14 nM, a koff of 0.000569 s⁻¹ and a kon of 501000 M⁻¹ s⁻¹.
The like results for B3 were, in that order, 3.38 nM, 0.00247 s⁻¹ and 731000 M⁻¹ s⁻¹.

Another test addresses T2, human IL-31. Nature of the test: cell-based or functional assay.
As for B4, the “IC50, neutralization of hIL-31-induced signaling in IL-31RA/OSMR dimerization assay” value turned out to be 8.21 ng/mL.
Turning to B1, the “IC50, neutralization of hIL-31-induced signaling in IL-31RA/OSMR dimerization assay” value came to 7.98 ng/mL.
Still for that read-out and setting: the result for B2 reads 8.07 ng/mL; that for B3, 371 ng/mL.

The target of the next test is T2, human IL-31. The test is described as follows: cell-based or functional assay. The source holds these as a separate data set.
For the molecule B5, the “Mean IC50, neutralization of human IL-31-induced signaling in IL-31RA/OSMR dimerization assay” value turned out to be 0.198 nM.
Same read-out and setting: the result for B6 reads 0.142 nM.

Broadly, the Kd is the concentration at which binding is half-saturated. For orientation: koff means the first-order rate constant of dissociation. Usually kon stands for a measure of how fast the partners come together.

(Values after patent EP4019546A1 (Numab Therapeutics AG, dated 2022).)
